Measured values from US20220332804A1 (CSL INNOVATION, published 2022).

Columns and labels:
Assay in all cases: SPR, KD relative to WT C2;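 also: biacore SPR at 37 °C, anti-C2 mAbs captured via immobilised goat anti-human IgG, C2 alanine or serine surface mutants as analytes, 1:1 model fitted, double-referenced sensograms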
[1] = target: T1, human C2 L701A (human, UniProt P06681 21-752)
T1 sequence: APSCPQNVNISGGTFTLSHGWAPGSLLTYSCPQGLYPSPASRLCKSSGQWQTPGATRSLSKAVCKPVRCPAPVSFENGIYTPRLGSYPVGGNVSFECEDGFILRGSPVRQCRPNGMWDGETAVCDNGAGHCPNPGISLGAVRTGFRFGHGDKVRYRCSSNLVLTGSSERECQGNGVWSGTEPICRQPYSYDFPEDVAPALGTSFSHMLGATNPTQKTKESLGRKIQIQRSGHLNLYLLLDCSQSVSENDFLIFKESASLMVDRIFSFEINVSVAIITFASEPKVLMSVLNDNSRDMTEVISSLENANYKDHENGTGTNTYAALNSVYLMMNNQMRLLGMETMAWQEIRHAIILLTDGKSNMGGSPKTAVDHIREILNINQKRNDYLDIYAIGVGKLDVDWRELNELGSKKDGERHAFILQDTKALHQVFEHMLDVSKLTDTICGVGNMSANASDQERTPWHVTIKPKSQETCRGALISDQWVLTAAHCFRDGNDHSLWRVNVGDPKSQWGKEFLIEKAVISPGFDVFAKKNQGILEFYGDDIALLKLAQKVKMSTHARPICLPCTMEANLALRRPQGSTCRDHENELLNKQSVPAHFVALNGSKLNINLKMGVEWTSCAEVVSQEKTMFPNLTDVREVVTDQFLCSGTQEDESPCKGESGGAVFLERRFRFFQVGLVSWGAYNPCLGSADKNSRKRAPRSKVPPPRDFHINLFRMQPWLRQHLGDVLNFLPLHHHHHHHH

[2] = target: T2, human C2 P718A (human, UniProt P06681 21-752)
T2 sequence: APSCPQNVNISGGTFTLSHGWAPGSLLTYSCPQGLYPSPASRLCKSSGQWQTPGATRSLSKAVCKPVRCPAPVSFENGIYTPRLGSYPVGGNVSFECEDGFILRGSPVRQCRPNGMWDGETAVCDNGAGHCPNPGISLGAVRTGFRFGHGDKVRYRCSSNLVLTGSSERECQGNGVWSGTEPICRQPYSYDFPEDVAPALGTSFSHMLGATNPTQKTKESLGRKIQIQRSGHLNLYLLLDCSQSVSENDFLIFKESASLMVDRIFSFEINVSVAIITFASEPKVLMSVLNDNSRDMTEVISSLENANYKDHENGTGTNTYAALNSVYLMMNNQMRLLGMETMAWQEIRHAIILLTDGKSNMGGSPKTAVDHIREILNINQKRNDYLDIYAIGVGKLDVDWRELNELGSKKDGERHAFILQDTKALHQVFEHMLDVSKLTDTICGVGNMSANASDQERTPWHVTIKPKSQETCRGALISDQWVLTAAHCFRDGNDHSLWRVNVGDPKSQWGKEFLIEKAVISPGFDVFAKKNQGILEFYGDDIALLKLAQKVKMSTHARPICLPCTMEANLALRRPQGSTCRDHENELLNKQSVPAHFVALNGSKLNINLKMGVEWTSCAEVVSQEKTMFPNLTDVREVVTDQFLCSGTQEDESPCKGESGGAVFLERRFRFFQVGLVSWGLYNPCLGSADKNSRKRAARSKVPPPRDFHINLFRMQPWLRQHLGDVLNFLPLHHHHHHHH

[3] = target: T3, human C2 D404A (human, UniProt P06681 21-752)
T3 sequence: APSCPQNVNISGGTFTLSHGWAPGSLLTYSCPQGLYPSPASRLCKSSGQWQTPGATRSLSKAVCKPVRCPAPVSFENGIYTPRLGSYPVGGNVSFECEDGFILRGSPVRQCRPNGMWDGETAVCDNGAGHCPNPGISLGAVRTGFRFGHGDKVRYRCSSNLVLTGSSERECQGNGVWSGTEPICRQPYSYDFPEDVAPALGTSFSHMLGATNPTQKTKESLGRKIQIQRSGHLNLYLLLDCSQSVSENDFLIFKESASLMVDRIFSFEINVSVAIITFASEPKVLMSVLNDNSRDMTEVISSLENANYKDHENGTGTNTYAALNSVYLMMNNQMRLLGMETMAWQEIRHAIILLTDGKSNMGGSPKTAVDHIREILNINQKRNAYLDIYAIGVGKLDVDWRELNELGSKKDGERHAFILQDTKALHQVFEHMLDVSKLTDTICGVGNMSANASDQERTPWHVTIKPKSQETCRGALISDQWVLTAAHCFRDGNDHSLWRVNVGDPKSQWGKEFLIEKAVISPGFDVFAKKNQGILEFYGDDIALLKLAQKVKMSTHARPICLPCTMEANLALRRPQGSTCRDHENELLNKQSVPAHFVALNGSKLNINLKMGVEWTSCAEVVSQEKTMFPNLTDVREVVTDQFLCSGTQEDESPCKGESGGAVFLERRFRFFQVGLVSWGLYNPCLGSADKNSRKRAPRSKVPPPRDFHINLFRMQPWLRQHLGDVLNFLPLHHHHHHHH

[4] = target: T4, human C2 D511A (human, UniProt P06681 21-752)
T4 sequence: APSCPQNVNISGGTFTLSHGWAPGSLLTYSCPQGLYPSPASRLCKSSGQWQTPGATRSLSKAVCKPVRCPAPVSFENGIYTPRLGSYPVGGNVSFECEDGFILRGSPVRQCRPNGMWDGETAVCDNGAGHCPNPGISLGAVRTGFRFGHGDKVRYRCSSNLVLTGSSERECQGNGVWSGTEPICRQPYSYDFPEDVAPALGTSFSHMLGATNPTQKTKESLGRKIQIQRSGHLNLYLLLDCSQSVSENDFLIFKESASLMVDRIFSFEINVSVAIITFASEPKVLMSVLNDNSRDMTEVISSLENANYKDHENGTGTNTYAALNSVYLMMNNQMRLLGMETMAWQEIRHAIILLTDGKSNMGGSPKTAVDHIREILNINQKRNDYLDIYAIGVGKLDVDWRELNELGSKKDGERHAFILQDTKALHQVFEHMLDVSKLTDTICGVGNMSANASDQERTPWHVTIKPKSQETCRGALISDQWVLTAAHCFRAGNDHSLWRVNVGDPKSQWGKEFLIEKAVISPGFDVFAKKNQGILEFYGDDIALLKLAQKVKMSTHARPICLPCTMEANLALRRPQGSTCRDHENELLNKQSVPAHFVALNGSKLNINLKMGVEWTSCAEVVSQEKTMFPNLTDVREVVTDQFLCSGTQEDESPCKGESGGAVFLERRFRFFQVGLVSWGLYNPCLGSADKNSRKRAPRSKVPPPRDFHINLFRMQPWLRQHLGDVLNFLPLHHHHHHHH

B1: RF16-226 (antibody, human IgG4 S228P, lambda)
heavy: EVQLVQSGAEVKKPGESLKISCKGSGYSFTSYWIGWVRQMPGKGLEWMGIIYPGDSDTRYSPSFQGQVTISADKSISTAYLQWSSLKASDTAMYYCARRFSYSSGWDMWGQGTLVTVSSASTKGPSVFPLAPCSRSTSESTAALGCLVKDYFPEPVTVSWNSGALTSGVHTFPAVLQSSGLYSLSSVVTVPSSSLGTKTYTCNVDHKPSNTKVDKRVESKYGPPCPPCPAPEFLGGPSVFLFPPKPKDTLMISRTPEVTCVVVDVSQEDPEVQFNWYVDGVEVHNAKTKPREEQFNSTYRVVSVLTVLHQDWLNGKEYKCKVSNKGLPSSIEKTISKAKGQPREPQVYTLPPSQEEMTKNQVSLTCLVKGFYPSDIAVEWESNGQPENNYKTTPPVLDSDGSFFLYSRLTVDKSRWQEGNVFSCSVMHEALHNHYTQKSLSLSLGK
light: SYELTQPPSVSVSPGQTARITCSGDALTSKYVAWYQQKSGLAPLLVIYEDTRRPSGIPAKFSGSSSGSVATLTISGAHGDDEADYYCYSTDASGHQRVFGGGTKLTVLSQPKAAPSVTLFPPSSEELQANKATLVCLISDFYPGAVTVAWKADGSPVKAGVETTKPSKQSNNKYAASSYLSLTPEQWKSHRSYSCQVTHEGSTVEKTVAPTECS
notes: pH-dependent anti-C2 antibody from a phage display library; also called WT
- Fold diff [1]: 16 fold
- Fold diff [2]: 2 fold
- Fold diff [3]: 1 fold
- Fold diff [4]: 3 fold
